Assays:
[1] = system: H358 cells; assay: Induction of EMT in H358 cells by growth factors and cytokines (immunoblot of EMT biomarkers); type: cell-based, human; conditions: seven day treatment of H358
Method: The human line H358 was cultured in the appropriate ATCC recommended supplemented media. Growth factor and cytokine induced EMT was monitored over a 7-14 day period. […]
Cell lines were treated as indicated in the text and figure legends. […] Protein concentration was determined by micro-BCA assay (Pierce, #23227). […]

[2] = system: H358 cells; assay: Immunofluorescence and confocal imaging of E-cadherin and vimentin in ligand-treated H358 cells; type: cell-based, human; conditions: cells treated for 7 days
Method: Cells were plated on coverslips on experimental day 0, stimulated with ligand on day 1 and refreshed with medium and ligand on day 3-4. On day 7, cells were fixed at room temperature for 10 minutes in 4% paraformaldehyde (EMS #15701)/PBS (Gibco #14190). Cells were blocked in 3% BSA/PBS and incubated with primary antibody (E-cadherin, Santa Cruz #sc21791 and Vimentin, Chemicon #AB5733) diluted in blocking buffer for two hours at room temperature. Cells were washed and incubated in secondary antibody (Invitrogen #A11029 and Chemicon #AP194R) followed by nuclear counterstain TO-PRO3 (Invitrogen #T3605). Coverslips were mounted on slides with Pro-Long Gold anti-fade reagent (Invitrogen P36934). Images were captured on a Leica DMRXE microcope with SP2 scanner using Leica Confocal Software.

B1: OSM: oncostatin M (R&D Systems #295-OM) (protein, UniProt P13725 26-221, looked up)
Oncostatin-M: AAIGSCSKEYRVLLGQLQKQTDLMQDTSRLLDPYIRIQGLDVPKLREHCRERPGAFPSEETLRGLGRRGFLQTLNATLGCVLHRLADLEQRLPKAQDLERSGLNIEDLEKLQMARPNILGLRNNIYCMAQLLDNSDTAEPTKAGRGASQPPTPTPASDAFQRKLEGCRFLHGYHRFMHSVGRVFSKWGESPNRSRR
E-cadherin repression or vimentin induction as single agents [1]: neither HGF or OSM as single agents produced significant | extent of EMT at the single cell level (E-cadherin and vimentin expression and localization) [2]: partial EMT
